Results taken from the supplement of paper PMC7125110.
± gives the standard error. For part of these data: This sample holds only a part of the variants without activity.

B1: glmS ribozyme (parent)
chain: AUAAAAGCGCCAGAACUACAGAAAUGUAGUUGACGAGGAGGAGGUUUAUCGAAUUUUCGGCGGAUGCCUCCAAA

What was measured:
Settings in all cases: with glucosamine-6-phosphate
glucosamine-6-phosphate [1] = variants of: B1; assay: kcat; higher = faster cleavage; RNA array
Method in brief: (§1)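 Over ~14 h at 37 °C, tiles were imaged as glucosamine-6-phosphate (40 μM to 10 mM) in HEPES/KCl/Mg(OAc)2 buffer flowed across sequenced MiSeq chips. The chips carried barcoded ribozyme variants transcribed in situ by E. coli RNA polymerase and tracked with a hybridised Cy3 probe. After normalisation to baseline and to non-cleaving reference variants, one- or two-exponential decay fits of per-tile medians gave kobs. kcat and KM followed from weighted Michaelis–Menten fits across concentrations.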

glucosamine-6-phosphate [2] = variants of: B1; assay: KM; higher = weaker cofactor use; RNA array
Method in brief: as §1

glucosamine-6-phosphate [3] = variants of: B1; assay: self-cleavage kobs at 2500 uM GlcN6P; higher = faster cleavage; RNA array
Method in brief: as §1

glucosamine-6-phosphate [4] = variants of: B1; assay: self-cleavage kobs at 10000 uM GlcN6P; higher = faster cleavage; RNA array
Method in brief: as §1

glucosamine-6-phosphate [5] = variants of: B1; assay: self-cleavage kobs at 40 uM GlcN6P; higher = faster cleavage; RNA array
Method in brief: as §1

glucosamine-6-phosphate [6] = variants of: B1; assay: self-cleavage kobs at 160 uM GlcN6P; higher = faster cleavage; RNA array
Method in brief: as §1

glucosamine-6-phosphate [7] = variants of: B1; assay: self-cleavage kobs at 640 uM GlcN6P; higher = faster cleavage; RNA array
Method in brief: as §1

| Variant | kcat (glucosamine-6-phosphate [1]) [s⁻¹] | KM (glucosamine-6-phosphate [2]) [µM] | self-cleavage kobs at 2500 uM GlcN6P (glucosamine-6-phosphate [3]) [s⁻¹] | self-cleavage kobs at 10000 uM GlcN6P (glucosamine-6-phosphate [4]) [s⁻¹] | self-cleavage kobs at 40 uM GlcN6P (glucosamine-6-phosphate [5]) [s⁻¹] | self-cleavage kobs at 160 uM GlcN6P (glucosamine-6-phosphate [6]) [s⁻¹] | self-cleavage kobs at 640 uM GlcN6P (glucosamine-6-phosphate [7]) [s⁻¹] |
| --- | --- | --- | --- | --- | --- | --- | --- |
| C11A U31C | 7.57e-05 ± 7.2e-06 | 1620 ± 610 | 5.09e-05 ± 1.4e-05 | 6.39e-05 ± 1.1e-05 |  |  |  |
| C11U A64G | 0.00227 ± 0.00061 | 1370 ± 580 | 0.00108 ± 0.00014 | 0.00247 ± 0.00021 | 8.94e-05 ± 9.3e-06 | 0.0002 ± 2.5e-05 | 0.000741 ± 6.4e-05 |
| C11U U45C | 9.44e-05 ± 1.8e-05 |  | 6.5e-05 ± 1.3e-05 | 7.59e-05 ± 1e-05 |  |  |  |
| C10A A12C | 0.00025 ± 4.4e-05 | 2520 ± 930 | 0.000143 ± 1.2e-05 | 0.000185 ± 1.9e-05 |  |  | 4.03e-05 ± 8.4e-06 |
| C10A A48U | < 1e-05 |  |  | < 1e-05 |  |  | < 1e-05 |
| C11U A33U | 7.95e-05 ± 1.1e-06 | 1500 ± 99 | 5.06e-05 ± 9.1e-06 | 6.9e-05 ± 5.3e-06 |  |  | 2.29e-05 ± 1.1e-05 |
| C11U A33C | 1.8e-05 ± 2.7e-06 | 8710 ± 2600 |  |  |  |  |  |
| C10U C16U | 1.06e-05 ± 1.7e-06 |  |  |  |  |  |  |
| C10U A12U C50U | 2.27e-05 ± 6.7e-06 |  |  |  |  |  |  |
| C10U A39G | 3.18e-05 ± 4e-06 |  | 4.09e-05 ± 2e-05 | 2.93e-05 ± 8.6e-06 | < 1e-05 |  |  |
| C11A G59A | 0.000719 ± 4.8e-05 | 4140 ± 480 | 0.000248 ± 5e-05 | 0.000516 ± 5.9e-05 |  |  | 9.86e-05 ± 1.6e-05 |
| A12C C58G | 0.0002 ± 2.6e-05 | 1730 ± 640 | 0.000106 ± 1.8e-05 | 0.000177 ± 2.2e-05 |  |  | 6.55e-05 ± 1.8e-05 |
| A12C A39C | 0.000611 ± 4.3e-05 | 2060 ± 260 | 0.000343 ± 3e-05 | 0.000499 ± 4.2e-05 | 1.91e-05 ± 9.4e-06 | 3.75e-05 ± 7.9e-06 | 0.000149 ± 1.2e-05 |
| G9A A12U | 5.42e-05 ± 3.1e-06 |  |  | 2.41e-05 ± 1e-05 |  | < 1e-05 |  |
| C11A A12C | 0.00026 ± 5.5e-05 | 900 ± 380 | 0.000182 ± 3.2e-05 | 0.000406 ± 0.00015 |  | 4.82e-05 ± 1.5e-05 | 0.000103 ± 1.8e-05 |
| C8U U31A | < 1e-05 |  |  |  |  |  | < 1e-05 |
| C11G A48G G59C | 0.000345 ± 1.4e-05 | 1870 ± 150 | 0.0002 ± 3.7e-05 | 0.000286 ± 7.5e-05 |  |  | 8.84e-05 ± 2.1e-05 |
| A12C C50A C68G | 2.56e-05 ± 8.7e-06 |  |  |  |  |  |  |
| C11U A39G | 0.00395 ± 0.00067 | 1780 ± 480 | 0.00192 ± 0.00036 | 0.00358 ± 0.00044 | 7.9e-05 ± 1.3e-05 | 0.00047 ± 9.6e-05 | 0.00116 ± 0.00026 |

| Variant | kcat (glucosamine-6-phosphate [1]) [s⁻¹] | KM (glucosamine-6-phosphate [2]) [µM] | self-cleavage kobs at 2500 uM GlcN6P (glucosamine-6-phosphate [3]) [s⁻¹] | self-cleavage kobs at 10000 uM GlcN6P (glucosamine-6-phosphate [4]) [s⁻¹] | self-cleavage kobs at 40 uM GlcN6P (glucosamine-6-phosphate [5]) [s⁻¹] | self-cleavage kobs at 160 uM GlcN6P (glucosamine-6-phosphate [6]) [s⁻¹] | self-cleavage kobs at 640 uM GlcN6P (glucosamine-6-phosphate [7]) [s⁻¹] |
| --- | --- | --- | --- | --- | --- | --- | --- |
| A12C G41C | 4.9e-05 ± 9.3e-06 |  | 7.35e-05 ± 3.2e-05 | 4.45e-05 ± 1.1e-05 |  |  |  |
| C11A A42G | 0.000337 ± 5.9e-05 | 3420 ± 1100 | 0.000184 ± 4.7e-05 | 0.000239 ± 5e-05 |  |  | 4.77e-05 ± 1.4e-05 |
| C11A G37A | < 1e-05 |  |  |  |  |  |  |
| C11U C67U | 0.000394 ± 2.4e-05 | 925 ± 130 | 0.000278 ± 3e-05 | 0.000364 ± 3.9e-05 |  | 5.21e-05 ± 1e-05 | 0.000171 ± 1.8e-05 |
| C10G G62U | < 1e-05 |  |  |  | < 1e-05 |  |  |
| C11U G40U | 0.000224 ± 2.2e-05 | 3980 ± 910 | 0.000111 ± 3.6e-05 | 0.000159 ± 1.6e-05 |  |  | 2.87e-05 ± 7.5e-06 |
| G9A A42G | 1.5e-05 ± 2.2e-06 |  |  |  | < 1e-05 |  |  |
| G9C G60A | < 1e-05 |  |  |  |  |  | < 1e-05 |
| G9U U69G | 1.33e-05 ± 5.4e-06 |  | < 1e-05 | < 1e-05 |  |  |  |
| C11A A39C | 3.87e-05 ± 5.2e-06 |  | 4.76e-05 ± 1.5e-05 | 3.53e-05 ± 7.7e-06 |  |  |  |
| C10U C67G | 2.65e-05 ± 6.6e-06 |  | 2.88e-05 ± 1.1e-05 |  |  |  |  |
| C10G C68G | 5.21e-05 ± 1.5e-05 |  | 4.78e-05 ± 1.7e-05 |  |  |  | 4.42e-05 ± 1.8e-05 |
| C8G U57A C70A | 5.04e-05 ± 1.1e-05 |  |  |  |  |  |  |
| C10A C67G | 8.97e-05 ± 1.7e-05 |  | 7.6e-05 ± 1.7e-05 |  | 2.69e-05 ± 1.1e-05 |  | 8.76e-05 ± 1.4e-05 |
| C11G A15U U54A C70A | 3.62e-05 ± 1.5e-05 |  |  |  |  |  | 6.28e-05 ± 2.7e-05 |
| G7U C70G | 0.000479 ± 0.00015 |  |  |  | 0.000382 ± 0.00012 | 0.000844 ± 0.0002 | 0.0004 ± 0.00014 |
| C10U A33U | 4.38e-05 ± 4e-06 |  | 4.07e-05 ± 1.2e-05 | 3.99e-05 ± 6.2e-06 | < 1e-05 |  |  |
| A12C G66A | 0.00855 ± 0.0022 | 1580 ± 570 | 0.00753 ± 0.0014 | 0.00648 ± 0.0015 | 0.00028 ± 7e-05 | 0.000705 ± 0.00014 | 0.00241 ± 0.00027 |
